# T1: human IFN receptor (human, UniProt P17181)
# T1 sequence 1: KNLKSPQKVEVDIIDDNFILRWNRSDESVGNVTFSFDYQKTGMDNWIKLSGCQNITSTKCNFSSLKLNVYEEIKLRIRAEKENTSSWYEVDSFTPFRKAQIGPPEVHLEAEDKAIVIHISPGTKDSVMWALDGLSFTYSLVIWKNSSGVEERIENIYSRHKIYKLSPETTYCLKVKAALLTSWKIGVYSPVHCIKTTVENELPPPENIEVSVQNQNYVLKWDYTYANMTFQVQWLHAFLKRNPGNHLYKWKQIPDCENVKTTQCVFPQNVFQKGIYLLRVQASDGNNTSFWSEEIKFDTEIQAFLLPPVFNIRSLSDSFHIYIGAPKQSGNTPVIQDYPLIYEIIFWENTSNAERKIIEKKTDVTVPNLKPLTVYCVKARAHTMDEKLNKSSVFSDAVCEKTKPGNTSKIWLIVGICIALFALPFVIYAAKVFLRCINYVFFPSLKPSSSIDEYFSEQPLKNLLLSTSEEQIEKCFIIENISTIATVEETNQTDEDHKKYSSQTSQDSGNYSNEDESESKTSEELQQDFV
# T1 sequence 2: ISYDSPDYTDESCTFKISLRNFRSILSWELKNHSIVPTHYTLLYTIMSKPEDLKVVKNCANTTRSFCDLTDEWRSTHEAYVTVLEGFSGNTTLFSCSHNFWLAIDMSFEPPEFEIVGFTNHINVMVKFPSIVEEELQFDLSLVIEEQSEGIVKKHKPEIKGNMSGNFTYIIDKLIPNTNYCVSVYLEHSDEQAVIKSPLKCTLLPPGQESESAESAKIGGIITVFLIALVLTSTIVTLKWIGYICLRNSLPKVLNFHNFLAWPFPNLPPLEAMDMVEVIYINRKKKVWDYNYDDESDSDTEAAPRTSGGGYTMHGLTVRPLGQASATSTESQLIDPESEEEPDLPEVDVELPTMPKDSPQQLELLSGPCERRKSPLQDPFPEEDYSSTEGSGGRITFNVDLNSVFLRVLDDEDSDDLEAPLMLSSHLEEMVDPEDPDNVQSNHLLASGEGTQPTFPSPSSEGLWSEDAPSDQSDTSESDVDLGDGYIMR
# Molecular target: T1, human IFN receptor
# Assay: cell-based or functional assay
Binder,"IC50 pg/ml (anti-proliferation, Daudi cells)","Specific Activity IU/mg x 10^8, Anti-viral (viral cytopathic effect bioassay, A549 cells challenged with virus)","Specific Activity IU/mg x 10^8, Anti-proliferation (Daudi cells, 72 hours, viable cells)"
"Intl. Standard (IFN-β reference standard calibrated in International Units, National Institute of Allergy and Infectious Diseases (NIH)) (ligand) MSYNLLGFLQRSSNFQCQKLLWQLNGRLEYCLKDRMNFDIPEEIKQLQQFQKEDAALTIYEMLQNIFAIFRQDSSSTGWNETIVENLLANVYHQINHLKTVLEEKLEKEDFTRGKLMSSLHLKRYYGRILHYLKAKEYSHCAWTIVRVEILRNFYFINRLTGYLRN",318 pg/mL,,
Human Interferon-β 1a-MOD-9010 (ligand) MSYNLLGFLQRSSNFQCQKLLWQLNGRLEYCLKDRMNFDIPEEIKQLQQFQKEDAALTIYEMLQNIFAIFRQDSSSTGWNETIVENLLANVYHQINHLKTVLEEKLEKEDFTRGKLMSSLHLKRYYGRILHYLKAKEYSHCAWTIVRVEILRNFYFINRLTGYLRN,251 pg/mL,3.9e+08 IU/mg,
MOD-9012 (IFNβ-ctpx2) (ligand) MSYNLLGFLQRSSNFQCQKLLWQLNGRLEYCLKDRMNFDIPEEIKQLQQFQKEDAALTIYEMLQNIFAIFRQDSSSTGWNETIVENLLANVYHQINHLKTVLEEKLEKEDFTRGKLMSSLHLKRYYGRILHYLKAKEYSHCAWTIVRVEILRNFYFINRLTGYLRNSSSSKAPPPSLPSPSRLPGPSDTPILPQSSSSKAPPPSLPSPSRLPGPSDTPILPQ,,4e+08 IU/mg,
MOD-9011 (IFNβ-ctp) (ligand) MSYNLLGFLQRSSNFQCQKLLWQLNGRLEYCLKDRMNFDIPEEIKQLQQFQKEDAALTIYEMLQNIFAIFRQDSSSTGWNETIVENLLANVYHQINHLKTVLEEKLEKEDFTRGKLMSSLHLKRYYGRILHYLKAKEYSHCAWTIVRVEILRNFYFINRLTGYLRNSSSSKAPPPSLPSPSRLPGPSDTPILPQ,264 pg/mL,4e+08 IU/mg,2.41e+08 IU/mg
MOD-9016 (ctp-IFNβ-ctp) (ligand) SSSSKAPPPSLPSPSRLPGPSDTPILPQMSYNLLGFLQRSSNFQCQKLLWQLNGRLEYCLKDRMNFDIPEEIKQLQQFQKEDAALTIYEMLQNIFAIFRQDSSSTGWNETIVENLLANVYHQINHLKTVLEEKLEKEDFTRGKLMSSLHLKRYYGRILHYLKAKEYSHCAWTIVRVEILRNFYFINRLTGYLRNSSSSKAPPPSLPSPSRLPGPSDTPILPQ,323 pg/mL,3.7e+08 IU/mg,1.97e+08 IU/mg

# Source: patent publication US8426166B2, “Long-acting polypeptides and methods of producing same” (Prolor Biotech Inc., dated 2013)
